In the experiment the target is constitutively activated LFA-1 expressed at a high level on a Jurkat T-lymphocyte cell line (human) (UniProt P20701). Briefly: cell-based or functional assay.
Sequence of constitutively activated LFA-1 expressed at a high level on a Jurkat T-lymphocyte cell line (human) (P20701 26-1170, chain 1 of 2): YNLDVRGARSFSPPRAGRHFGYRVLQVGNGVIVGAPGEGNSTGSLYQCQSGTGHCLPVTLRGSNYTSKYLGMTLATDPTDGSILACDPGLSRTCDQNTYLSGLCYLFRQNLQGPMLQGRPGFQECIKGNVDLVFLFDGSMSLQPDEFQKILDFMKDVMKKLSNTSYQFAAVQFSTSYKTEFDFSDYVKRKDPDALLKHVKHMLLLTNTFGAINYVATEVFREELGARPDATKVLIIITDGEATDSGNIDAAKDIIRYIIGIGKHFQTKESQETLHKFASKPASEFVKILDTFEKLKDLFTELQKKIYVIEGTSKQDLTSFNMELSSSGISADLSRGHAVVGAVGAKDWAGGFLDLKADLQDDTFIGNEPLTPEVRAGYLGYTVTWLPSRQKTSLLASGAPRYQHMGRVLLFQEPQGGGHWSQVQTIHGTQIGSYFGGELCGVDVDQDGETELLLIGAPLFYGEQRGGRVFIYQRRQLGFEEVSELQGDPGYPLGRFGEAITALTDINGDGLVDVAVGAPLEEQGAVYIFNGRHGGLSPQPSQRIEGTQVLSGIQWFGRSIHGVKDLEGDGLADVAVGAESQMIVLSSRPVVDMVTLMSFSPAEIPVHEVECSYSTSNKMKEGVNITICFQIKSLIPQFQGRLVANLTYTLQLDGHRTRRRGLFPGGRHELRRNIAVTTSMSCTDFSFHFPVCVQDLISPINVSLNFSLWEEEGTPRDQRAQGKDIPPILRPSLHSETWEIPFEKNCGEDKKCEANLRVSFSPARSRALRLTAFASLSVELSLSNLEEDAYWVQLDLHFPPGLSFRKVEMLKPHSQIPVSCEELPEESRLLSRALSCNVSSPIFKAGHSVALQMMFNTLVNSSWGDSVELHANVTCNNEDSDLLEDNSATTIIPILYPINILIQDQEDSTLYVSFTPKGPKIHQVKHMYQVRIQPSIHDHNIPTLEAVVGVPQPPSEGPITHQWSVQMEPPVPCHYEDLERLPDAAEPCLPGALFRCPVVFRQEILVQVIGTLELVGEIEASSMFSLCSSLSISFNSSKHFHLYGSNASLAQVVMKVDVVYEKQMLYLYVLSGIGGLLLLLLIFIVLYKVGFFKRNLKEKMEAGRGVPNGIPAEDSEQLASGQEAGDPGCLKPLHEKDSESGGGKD
Sequence of constitutively activated LFA-1 expressed at a high level on a Jurkat T-lymphocyte cell line (human) (P05107 23-769, chain 2 of 2, further chain): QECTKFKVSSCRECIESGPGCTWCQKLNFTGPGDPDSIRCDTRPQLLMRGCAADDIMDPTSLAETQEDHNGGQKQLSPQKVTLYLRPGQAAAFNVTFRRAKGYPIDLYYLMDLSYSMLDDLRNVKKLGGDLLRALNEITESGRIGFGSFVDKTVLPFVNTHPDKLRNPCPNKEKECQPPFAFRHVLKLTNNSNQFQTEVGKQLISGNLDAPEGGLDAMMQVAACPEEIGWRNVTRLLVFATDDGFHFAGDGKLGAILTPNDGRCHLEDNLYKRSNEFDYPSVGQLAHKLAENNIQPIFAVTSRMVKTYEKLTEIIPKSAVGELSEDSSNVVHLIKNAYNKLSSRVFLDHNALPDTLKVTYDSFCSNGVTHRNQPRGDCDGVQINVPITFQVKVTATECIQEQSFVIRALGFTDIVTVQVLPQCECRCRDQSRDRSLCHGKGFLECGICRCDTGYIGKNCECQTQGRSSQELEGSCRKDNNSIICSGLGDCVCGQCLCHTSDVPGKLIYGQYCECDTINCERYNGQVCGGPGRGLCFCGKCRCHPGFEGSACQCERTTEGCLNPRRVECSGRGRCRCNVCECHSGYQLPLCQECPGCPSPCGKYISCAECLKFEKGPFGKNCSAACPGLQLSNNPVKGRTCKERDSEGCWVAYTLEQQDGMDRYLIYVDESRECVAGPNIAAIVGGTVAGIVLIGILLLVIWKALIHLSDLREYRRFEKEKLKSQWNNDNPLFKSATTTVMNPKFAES

“Leukotoxin (LtxA) of Aggregatibacter actinomycetemcomitans strain NJ4500 (from UniProt P16462 1-1055)”: the sensitivity to LtxA-mediated toxicity came out at 10 times.

(Values after patent EP2488198B1.)
